Test results: PMC8866485, “Cell surface nucleolin is a novel ADAMTS5 receptor mediating endothelial cell apoptosis” (Cell Death & Disease, 2022)

Legend:
[1] = biological target: T1, FLAG-tagged full-length NCL (NCL-FL 1-710) (UniProt P19338 1-710); test: ELISA; saturation binding: FLAG-NCL-FL from HEK293T whole cell lysate captured on anti-FLAG antibody-coated plate; TS5-p45 titrated, 4 C overnight; anti-His detection; conditions: one partner purified
T1 construct: Nucleolin (NCL), residues 1-710, in pCMV-Tag2; the length of 710 residues fits human nucleolin; source: HEK293T, transiently transfected, in whole cell lysate; not shown: FLAG, N-terminal, kept

[2] = biological target: T2, Recombinant human NCL (FLAG-tagged, full length) (human, UniProt P19338 1-710); test: SPR; Biacore T200, CM5 chip; recombinant NCL captured by amine-coupled anti-NCL antibody; TS5-p45 as analyte, five dilutions, single-cycle kinetics; 25 C; HBST (10 mM HEPES, 150 mM NaCl, 50 uM EDTA, pH 7.4, 0.05% Tween-20); 1:1 model; conditions: both partners purified
T2 construct: Nucleolin (NCL), human, full length; also called rhNCL; recombinant NCL; source: bought: OriGene (TP319082)
T2 sequence (P19338 whole entry): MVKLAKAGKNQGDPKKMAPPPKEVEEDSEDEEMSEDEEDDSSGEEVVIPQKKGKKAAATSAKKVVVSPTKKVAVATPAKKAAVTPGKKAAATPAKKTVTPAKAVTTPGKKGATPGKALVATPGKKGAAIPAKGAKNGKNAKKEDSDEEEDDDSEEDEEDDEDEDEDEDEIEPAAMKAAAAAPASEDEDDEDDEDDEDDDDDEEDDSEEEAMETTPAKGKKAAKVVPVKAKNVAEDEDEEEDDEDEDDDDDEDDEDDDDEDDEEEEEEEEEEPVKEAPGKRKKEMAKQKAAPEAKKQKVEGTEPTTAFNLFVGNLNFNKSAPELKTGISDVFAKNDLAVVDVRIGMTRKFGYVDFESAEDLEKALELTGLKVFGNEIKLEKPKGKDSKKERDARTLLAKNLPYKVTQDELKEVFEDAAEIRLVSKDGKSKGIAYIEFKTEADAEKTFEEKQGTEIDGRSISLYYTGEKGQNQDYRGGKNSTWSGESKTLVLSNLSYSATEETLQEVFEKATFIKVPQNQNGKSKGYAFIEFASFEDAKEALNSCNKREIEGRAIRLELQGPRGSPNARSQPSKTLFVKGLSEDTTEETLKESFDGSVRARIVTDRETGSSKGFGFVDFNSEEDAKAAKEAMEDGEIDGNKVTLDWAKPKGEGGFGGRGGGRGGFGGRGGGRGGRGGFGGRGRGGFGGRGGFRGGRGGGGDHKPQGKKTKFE

T1 sequence (P19338 whole entry, the tested form may be a part): as the sequence (P19338 whole entry) above

- Kd [1]: ~26 nM
- Kd [2]: ~28 nM
B1: Recombinant human TS5-p45 (C-terminal His-tagged, Ser262-Pro622 truncate of ADAMTS5) (domain or fragment, UniProt Q9UNA0 262-622, looked up)
chain: SISRARQVELLLVADASMARLYGRGLQHYLLTLASIANRLYSHASIENHIRLAVVKVVVLGDKDKSLEVSKNAATTLKNFCKWQHQHNQLGDDHEEHYDAAILFTREDLCGHHSCDTLGMADVGTICSPERSCAVIEDDGLHAAFTVAHEIGHLLGLSHDDSKFCEETFGSTEDKRLMSSILTSIDASKPWSKCTSATITEFLDDGHGNCLLDLPRKQILGPEELPGQTYDATQQCNLTFGPEYSVCPGMDVCARLWCAVVRQGQMVCLTKKLPAVEGTPCGKGRICLQGKCVDKTKKKYYSTSSHGNWGSWGSWGQCSRSCGGGVQFAYRHCNNPAPRNNGRYCTGKRAIYRSCSLMPCP
notes: ADAMTS5 (A Disintegrin and Metalloproteinase with Thrombospondin Motifs 5, aggrecanase-2), human, residues Ser262-Pro622; also called 45 kDa truncate of ADAMTS5; source: bought: R&D Systems (2198-AD-01M); not shown: His tag, C-terminal, kept
